# Test: soluble on expression in E. coli; label from the status in PepcDB or PDB records
row,Sequence,soluble on expression in E. coli
1,MPMFAWKGKRDKSMKVSVVIPVHNEASTLSKVLAEVKKLEPYEIIIVDNGSTDGTKEIALQHHCRVIYYNHSLGNDVGRAIGAREAKGEIVLFLDGDIVMKSEELYPFIKGIQQGHQIVLNNLTWSVYLKVRPHYTTVGKYMLNRYLNKKEFVVGSLIAIPHAISREVIEKLGWWNLADPALFQAMAMSRGVDISDMASVDVIYTNKVRPVHTGTSPDSPYPKATSRIMGDHLRALQYITETYGKRGGFSEGNRDREFIGKYKPVVLKKEKAKYSAIIPVSEEKTTIRSVIQEVKKAGVDEIIIVANGADIETIKQVNLENVIVVEVTKTLGNNVARAIGAMHATAEICLFVDGDYAIPAKKLVPFLRAIEDGSDMALNDLQCLLDIFHPADPISMGKYFVNLVAKRPDLWNNSLTAVPHAIRKKVIEKIGYDSLIIPPLAQMKAILEGFSITTVEFVDVIKTNRVRPEQHEFVNGRISAFDRIFGDQLEAIAYLLQHTDERGGFTDGDRDREIIQQLRREEENTNEY,not soluble
2,MPMSSLPAAILSHMTAINNVPPPPLHSIPNLKKSKHINYGQLNALCHIRGQHSRSMSNILSAHDTFMKQYPKVFLHQKPRLPKLFKQEEQRELNEGKEESQHQQPDDSNNIAVHVQRAHGGHILYRPKRATEKFEEFLAILKKLPIHRTPYEHKTVWKFLKTIPDLTFQLNDKHLKTLSKTVFSETWLKGSTVVANDGFYVILKGLARPQTNVYKNLIEGSDSPDSFISQSFHSFIWSEEFKNSTLAEMYLPSYDSMLSKWSTFGTLEVMPQNESETQMFSVVTEDDCEILKIPAKGYAKIKEEKIKLENMQKLKLIRMCPYYEEWPTLSIYELIALLKWKKFPPGHVIVESGNIISFVGYINSGCCNIYRSIIGFVKLRSNKVKRSQKLVYMGKLKEKESFGEISVLLQVPFTCTIITKKEVEMAIIEDKDLFVA,soluble
3,MPMVRNPMFLRMLGGLALALMLSAGRVATADTGTEAARAVVDKLNGALIDVMRNAKQLGYQGRYKKLDPIVREVFQFEAVAQIALGAHWKTLNDDQKREFVKKLTELSIATYAAQFNSYAGEQFQYDSDQAVKPDRVVVRYKMVAPKETPVKFDYMVNQFDGKWEIINIVVDGISDLALKKAQYTSVIDREGFDVLMSKLTQKITDYANNENNSKSLEHHHHHH,soluble
4,MPNDLPLLPPKNQHKHLDKTMISLPSDFRHLAHVGPMGSSEIENLRTSDNVIDTVNESSYYIRPSSSNSTLRSQRKEKDRVGLDDAFPSASKSEEEVEVVRGYENQPTSHQYINIAPPRPSKKNYKAPAPPTPPPQNSKPNLIFNAQDDEEETSEISEQPVVFRSISHTSNISTHIAPPPKIQTADRIVAPKPNSLVIERPGDLGGAFSFGLDDCIPIVKSTPPLNTLSPLHRPLAIPKNQEETPILSPASPPDDSNYMSTIRSTSVQGRKILDELDDWLDDLDDLDRDQLSTISTDESGYPTLALEKDRAFMKHLVEKYELGVAPETIRLRKKKGPAPKAPSLPPDLSSPTFQAPGFIPAFSARPVSMPPNRPPPSYEAPSFDAPEAPGTVLINGRALTKQNALDLRSSDESGVPPAIARFLYDKRIKSATMPMSIGRMTSSSGNTDVSTTSSRSNADTVSSILSTVGEDDDVEVLKRDREVEEEFVPPVPKPRSRKTVSTEPLKEEEEENVEEEIKGENVIGEEFQVVGDTKINDEQEDRVEATKDKINDAFIMLPPPSAAAMIPSDSESEDDDNFIITRF,not soluble
5,MPPADGTSQWLRKTVDSAAVILFSKTTCPYCKKVKDVLAEAKIKHATIELDQLSNGSAIQKCLASFSKIETVPQMFVRGKFIGDSQTVLKYYSNDELAGIVNESKYDYDLIVIGGGSGGLAAGKEAAKYGAKTAVLDYVEPTPIGTTWGLGGTCVNVGCIPKKLMHQAGLLSHALEDAEHFGWSLDRSKISHNWSTMVEGVQSHIGSLNWGYKVALRDNQVTYLNAKGRLISPHEVQITDKNQKVSTITGNKIILATGERPKYPEIPGAVEYGITSDDLFSLPYFPGKTLVIGASYVALECAGFLASLGGDVTVMVRSILLRGFDQQMAEKVGDYMENHGVKFAKLCVPDEIKQLKVVDTENNKPGLLLVKGHYTDGKKFEEEFETVIFAVGREPQLSKVLCETVGVKLDKNGRVVCTDDEQTTVSNVYAIGDINAGKPQLTPVAIQAGRYLARRLFAGATELTDYSNVATTVFTPLEYGACGLSEEDAIEKYGDKDIEVYHSNFKPLEWTVAHREDNVCYMKLVCRKSDNMRVLGLHVLGPNAGEITQGYAVAIKMGATKADFDRTIGIHPTCSETFTTLHVTKKSGVSPIVSGCCG,soluble
6,MPPKQQLSKAAKAAAALAGGKKSKKKWSKKSMKDRAQHAVILDQEKYDRILKEVPTYRYVSVSVLVDRLKIGGSLARIALRHLEKEGIIKPISKHSKQAIYTRATASE,soluble
7,MPPLPLIGMLLGTASTMIKSSSGAAAHASGASSAPSGDAAPTAPFAQTLKRNVQTQRQTNAGAGAGAPNAGNATNAATSGTANASTTSSASEPATTNAGNTKASGKPDDQDDDKNATQSASADAAAALAAAASLQAQLQARPDAQAAQAAAPQAGASDAAHPPTTLATNTAAAGDADTSALAGAQQPVGEALNAALSKLTGAGPAGAAATQRAQPAGRNDGAPTPLAANGPFDKMLAGAKAPAAPATLTDASGTNPAVSTAAQPAASGAIAALQDAADSARATLAASSAPAALQQAAPAALAANANAAAATAAPSLAPPVGTPDWTEALSQKVVFLSNAHQQSAELTLNPPDLGPLQVVLRVAENHAHALFVSQHAQVRDAVEAALPKLREAMEAGGLGLGSASVSDGGFASAQQQQTPQRQSSDGSAARRASGAPTADAALGEVSAVSSGGVTRRSVGMVDTFA,not soluble
8,MPPLRQFLNRLLALTIRMQNVIFERFELLLSQQIETAIANGIFEAGVETLRAERFTIESCESVYTHPDTGSVTNYLKVEQVQRNNIRTAVEMLEFAAKYQGQLMVNQKSSNAAVSIPTHSIFDCDGGVVPRVLLVRPQKETRVPVEQLESSTWQQVSAEEFVTAWSREVDELPRFTTDYLHLVTGILLPIWKILPQKNSRVFRLQTSDGQKILGRVVHASDIQTVTEQLGLKNKLEHHHHHH,soluble
9,MPPMRSKATQWLLSVWGLMDPLYYACSRLEYVGGKENGCRSIFRVRLLRYKGETIHLSDGTTIAANDWLLKIHLHNVRLLCELMQYRSDIQKGRYIFEQVKAGLPHVAHHLYHHEQSSSIKGIIGVTMLNKGCERLGFDVIDIANSFYRWFKMASHWPMMTVAQHRLVPLVRPPKYLVMSKEKLFSLYGCHLIH,not soluble
10,MPPNANSVGGPKKKNKKNHQRPQQQHQQTQPQPLPEEEQPENPIKKDPKPEVLEEVVEKNREEDKEKVEETVAPTIEKEKNISGDLLDFSSSDKSSLSSRPDSPEEDEDAVPVVNRTTTSPPTSPPSQTAVEQDSLQAEEMLVDMSLDDAPAAPPRKPHQRSAPPPIPSMNTIMTKPRTNSVSYIKGQVVRQSAVEQQTLANQVVDLVAMGMSKGQTQSSQITAEKAEWVQLTSVEKAGEPNERLEVLIVGLCRGYQIWTMSQSGEFEEVLSERQGPVRALKVLPNNLKLRGKKDSFADSRPLIAMVDASSHHPDRQYCSVTIISLLTGREVHKIKFEEPVCAVNVSDQFLVVSLANMAYAYDILTFNEVRTIRTAPSCENSPPALSLSCQLLAYADTSLDLNLQSSGGLAAEVEATSSEKYTDHIYTAMSYFSRSVKTISESVGAGSGSSTKANQPQGVITVLNLAVSGEDESDGVMCHYVAHVDPISYIAFSPDQRLVLSADANANVFNIFLLMPHATSSSLAAVQHLYKLNRGSTPAKVVSTAFSEDCRWLAITTNHATTHVFAVCPFGGKPNQRTHGDTFVNKESRFHRSAGLTDAADVTASIGPSKHRAMADSCSYTKEHPIAVNSPTLAKTNGNSRVGPFPPPLLLVATEKIKDSRYTKEDLSAWAADMTSFSYPAAQASSSPAVAARRRLEVSRMSVMFRMKSYNSTTSTKTAKTTKMLMSMSLVIAKVDPAQGVIVTQHDIKSLRKEGETNMEASPQISVAPVGGWILQRTKNNADMHAPMPSASPLMAFATVETVPAKRIGDEDVWTPHVETRTYLPPHRWIWQGPQFELFEYREDDQPSLMSPGNKGSNASFKSIPVLVGSEAVNITMKTIPADATRIECGSYTSANSYSIDQGSDQPVIGGYSSATNGDYIASIADAMRDISSDDDSTKKKSPKNDDLIEEFFDTESSTPFARNGSGSSSSTGATGGKSLKKKKTPPASAPLPTSSTKSSQKDKKVQNGRERSKDSDDFGTFDMDDI,not soluble
11,MPQNQSDRLKPKGSGDGPLGTALGRGAGVASDLWRRIRTRALSAIGPEAEAQLYEVHKEWLGDLSGKKVLEIGGGSPLSPWLADTARTYHAVSADPAELEALKVRLGEGRTARLIEADPMSGAFRETGYDVIYLHSVLHRMADRGPFLDRLLKKLAIEGRVVTTDPADGGALTRLVRTIDRPFRAESLPDHPVTEELKAELAERFYLINCVAPFRLGKAALVLGALHPELGRRVSERLIAADLKDRAAFNRLNASLQVSFLLGAPD,not soluble
12,MPREFKSFGSTEKSLLSKGHGEPSYSEIYAEPENFLEIEVHNPKTHIPNGMDSKGMFTDYEIICRTNLPSFHKRVSKVRRRYSDFEFFRKCLIKEISMLNHPKVMVPHLPGKILLSNRFSNEVIEERRQGLNTWMQSVAGHPLLQSGSKVLVRFIEAEKFVG,soluble
13,MPRHFHVALLILVLCGAERARGALRVQLQDYDKNSWRSVLRRVAPEWVLEEFADVKVLSAAENGFQLPKSGLAQIEINKSGRKTVTANTPTDALNAINTYLRTECLSQVSWSNSSFSSGCRKRTSDFINFESKQIRYFGNMCTFSYSFAWWEWPQWERFIDWIALNGFNTVLMPLGQEIIWRDIFMGLGVQRDELDSYFTSQAYLAWHRMGNLKAYGGGLSDAQMLNDHNLAKRIIDRLLELGITPILPTFAGFVPDHLETLFPASKFNRLPRWNNFTSETSCMLSVSPFDPLFQKIGSTFLRHQKKMFGGDVTNMYSADPFNEILPSESAKFDAKFVKQTAQAIMNSCKKVDKNCVWVLQSWSFTYDQWPAWAIKSFLSAIPVGNLLILDLYAEVVPAWQMTSSFQGHHFVWCLLHNFGGSRELRGNLQKIDKGYQLALMKAGSNLVGAGLSMEAIDQNYVVYQFMIDRMWSPEPLPLNNWLKAYSESRYSADFKVAQKFWTLLAGTFYNQPEKWGTPRFSVFLYHRPGFGRKIEYWFPVEETFSRFRELLPALVHVLGEHPLFREDLNDVMREMTQFEMGNEAALSMSEAFLMEDKQQVGASCEMLMEMFQKLESYSNRDVRQWIENAKSIAPTSEERQVFPVTAGDILTVWGPTGQNLDYAHREWAGLMSGYYGRRWQYFCDWILEHDDFNHTEFSISVFRDVERPFSISNI,not soluble
14,MPRKLLEERSTGSATKWLREEEKIEKKSRADQLKIKFMQTRDNSDINSIFSEPPSEFSVLCDDDDCDKGSVVSSTLTTSIRKTFSSFRFDENQRKKGTRKRRSSEKGRICRRKVHIILARNMLRKENELYKKDAEYCQTPRAVADGCSFSTLPTI,not soluble
15,MPRLYLGKIPYNARERDVERFLKGYGKINNISMKYGFAFVDFEDSRDAEDACHDLDGKTMEGSSMRLVVEMARGKPRGNDRHGSRSPRRRSRSPRRRSRTPPRRRSRSRDRKRSRRSRSRSSSRSRSPVRESRRRSESRSPSPKRDLKREASRSRSPLPAKDRSRTRSGSPPKNGGDRKRSVSRGRSHSRDGSNRSVSRSPSPGSPKD,not soluble
16,MPRPDNVPVYTMRQLAAFVAVAETGTISGAAERMHLSQSALSAAVTDLEKALKAQLCVRRRARGVQLTPTGEAVLSRARALLQQAGELQSDASGEGGVVAGPIAVGCYPALGPTILPSMLYAFTAEYPRASVEFREDTQNRLRTQLEGGELDVAIVYDLDLSPEWQTVPLMTREPMVVLGAEHPLAGVDGPVRLADLAEHPMVLLDAPPSTNHAMDVCREAGFAPRVAYRTANFETARAFVGRGLGWTLLLQRPRVDVTYEGLPVVVKPIAEPKPASVAVVVAWHQEATLSRVARAFIRFVTA,not soluble
17,MPRPPHLCTCGQLVPHGARCSCQIQRDRERKARFDQKRPSSRERGYTHEWRKARAEFLHQHPTCAFCGAPAGVVDHVIPHKGDMTLFWDRTNWQALCKPCHDRQKQMQERYNHIISLEHHHHHH,not soluble
